Source: paper PMC11532494 (Nature Communications, 2024)

Biological target: AcuC (acetoin-utilization protein C) of Bacillus subtilis (Bacillus subtilis) (UniProt P39067)
Assay: dose-response enzyme inhibition (Fluor-de-Lys assay)

Sequence of AcuC (acetoin-utilization protein C) of Bacillus subtilis (Bacillus subtilis) (P39067 whole entry): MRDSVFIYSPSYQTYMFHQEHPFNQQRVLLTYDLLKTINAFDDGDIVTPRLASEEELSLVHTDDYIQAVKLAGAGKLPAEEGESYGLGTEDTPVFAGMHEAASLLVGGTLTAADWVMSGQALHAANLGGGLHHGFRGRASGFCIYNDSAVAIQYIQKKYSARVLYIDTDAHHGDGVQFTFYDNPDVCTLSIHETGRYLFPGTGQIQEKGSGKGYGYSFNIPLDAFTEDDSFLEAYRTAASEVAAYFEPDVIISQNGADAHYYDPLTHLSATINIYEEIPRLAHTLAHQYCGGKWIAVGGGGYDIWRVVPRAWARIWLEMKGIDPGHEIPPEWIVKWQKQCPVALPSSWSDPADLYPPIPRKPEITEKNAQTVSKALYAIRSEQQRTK

## apicidin A (peptide)
  Ki: < 72 nM
